US6844318B2, “Peptidase-cleavable, targeted antineoplastic drugs and their therapeutic use” (priority 2000, dated 2005)
Where two headings read alike, the source gives them in different places. Residues, ends and D or L forms follow the SMILES beside them. *: point of attachment. Doxorubicin(3'-N) = COc1cccc2c1C(=O)c1c(O)c3c(c(O)c1C2=O)C[C@@](O)(C(=O)CO)C[C@@H]3O[C@H]1C[C@H](N*)[C@H](O)[C@H](C)O1

Key:
[1] = Stability of conjugates in Hepes buffer (control of blood stability test); type: physicochemical; details: Hepes buffer pH 7.5, 10 μmolar, 37° C.
Method: (§1) The stability of doxorubicin conjugated peptides in human or nude mouse blood was evaluated by reverse phase HPLC with fluorescence detection after an 80% acetonitrile extraction. Individual peptides are prepared as 60 μmolar solutions in Hepes buffer pH 7.5 (50 mM), with CaCl2 (10 mM), Brij-35 (0.1%), followed by dilution to 10 μmolar in fresh heparinized whole blood or buffer. Solutions are incubated (37° C.) with slow continuous rocking. 50 μl reactions are terminated at designated times ranging from 1 minute to 24 hours by vortexing into 200 μl acetonitrile. After a brief centrifugation (1 min, 14,000×g) to pellet the precipitate, the acetonitrile is collected and evaporated to dry under a flow of nitrogen. Extracted samples are resuspended in 50 μl acetonitrile, followed by 100 μl distilled H2O, and transferred to HPLC autoinjector vials. Samples are chromatographed using a Nova-Pak C18 column (3.9×150 mm; WAT086344, Waters Corp. Milford, Ma), with a 12 minute linear gradient from 33.3 to 77.7% acetonitrile, 0.1% TFA, using a flow rate of 1 ml/min. A scanning fluorescence detector (# 474, Waters Corp) monitoring 480 nm excitation, 580 nm emission quantitates AUC of peaks of interest; mass is extrapolated from a standard curve generated under matching conditions.

[2] = Stability of conjugates in human blood; type: in vitro ADME; details: fresh heparinized whole human blood, 37° C., read-out: Conjugate Stability in Blood After 5.5 Hours (Percent of Control (In Buffer, T = 0)), Human Blood
Method: as §1

[3] = system: HT1080 cells; assay: cells; type: cell-based
Method: The conjugates were tested for cytotoxic effect against the HT1080 cell line, which expresses multiple MMPs. […] HT 1080 cells in culture have significant levels of MMPs 2, 9, and 14 and are consequently especially suitable for the evaluation of conjugates that are substrates for that enzyme.
The cell line was grown in tissue MEM with Earl's salts containing 10% fetal bovine serum (FBS). On day one, 500 cells were seeded into 96 well plates in 200 ul of cell culture medium that containing 10% FBS which had been stripped of bovine gelatinases by prior passage over a gelatin-sepharose column. On day two, peptidyl-Doxorubicin conjugates and Doxorubicin as a control were added to the plates. The cells were incubated for three days at 37° C., 5% CO2 in a tissue culture cell incubator. MTS reagent was added to each microplate well using the manufacturer's instructions […]. The plates were incubated for 2 hours at 37° C., 5% CO2. The plates were read on a Molecular Devices Spectropmax 250 plate reader at […]. The viability of the cells in each well was then calculated for each concentration of compound tested and compared to the control wells where no compound was added.

[4] = Stability of conjugates in nude mouse blood; type: in vitro ADME; details: fresh heparinized whole nude mouse blood, 37° C., read-out: Conjugate Stability in Blood After 5.5 Hours (Percent of Control (In Buffer, T = 0)), Nude Mouse Blood
Method: as §1

[5] = system: HT1080 cells; assay: Analysis of processing by HT1080 cultures (HPLC); type: cell-based
Method: Actively growing HT1080 cells are seeded in a 12 well plate at 2×10^5 cells per well in DMEM with 10% serum. On the next day, media is removed and cells are washed twice with PBS. 1.5 of DMEM containing 0.1% BSA, […] Ac-PLG-HofK(Me2)L-Dox (SEQ ID NO: 127) and 40 nM PMA is then added to each well. A broad spectrum MMP inhibitor is added to some samples so that the amount of processing that is due to MMPs can be determined. At the indicated times, 0.1 ml aliquots are removed, added to 0.4 ml acetonitrile, vortexed, and centrifuged for 2 minutes. 0.4 of cleared supernatant is removed and dried using a nitrogen stream. The dried pellet is suspended in 0.12 ml of HPLC Buffer A and analyzed as in Example 1000.
At the times used in this experiment, the only detectable metabolite is L-Dox. HofK(Me2)L-Dox and K(Me2)L-Dox are not detected since they are rapidly converted to L-Dox. At later times, Dox is formed from L-Dox.

[6] = cited from earlier work
[7] = Phase I trial, in the tumor tissue; cited from earlier work
[8] = mice; cited from earlier work
[9] = system: human ovarian tumor xenograft; details: equitoxic doses; cited from earlier work
[10] = molecular target: PSA protease (Homo sapiens, UniProt P07288); details: cited from earlier work
Chain of PSA protease (P07288 25-261): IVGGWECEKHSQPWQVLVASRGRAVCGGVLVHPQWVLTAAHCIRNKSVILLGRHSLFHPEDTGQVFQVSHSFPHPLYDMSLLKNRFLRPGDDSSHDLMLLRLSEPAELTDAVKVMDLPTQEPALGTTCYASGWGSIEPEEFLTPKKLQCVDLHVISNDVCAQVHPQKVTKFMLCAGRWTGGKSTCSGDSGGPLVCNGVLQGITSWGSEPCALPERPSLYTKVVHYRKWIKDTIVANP

[11] = system: prostate tumor cells; details: cited from earlier work
[12] = HT1080 cells, three days, MTS, read-out: EC50

For `COc1cccc2c1C(=O)c1c(O)c3c(c(O)c1C2=O)C[C@@](O)(C(=O)CO)C[C@@H]3O[C@H]1C[C@H](NC(=O)[C@H](CC(C)C)NC(=O)[C@H](Cc2ccc(O)cc2)NC(=O)[C@H](CC(C)C)NC(=O)CNC(=O)[C@H](CC(C)C)NC(=O)[C@@H]2CCCN2C(C)=O)[C@H](O)[C@H](C)O1` [Ac-PLG-LYL-Dox, acetyl-P-L-G-L-Y-L-Dox] (Ac-PLGLYL-{Doxorubicin(3'-N)}), the “Conjugate Stability After 5.5 Hours (Percent of Control (In Buffer, T = 0)), Buffer” value [1] was 112% and the remaining at 5.5 h, 10 μmolar [2] was 90.1%.

In the case of `COc1cccc2c1C(=O)c1c(O)c3c(c(O)c1C2=O)C[C@@](O)(C(=O)CO)C[C@@H]3O[C@H]1C[C@H](NC(=O)[C@H](CC(C)C)NC(=O)[C@H](CC(C)C)NC(=O)CNC(=O)[C@H](CC(C)C)NC(=O)[C@@H]2CCCN2C(C)=O)[C@H](O)[C@H](C)O1` [Ac-PLG-LL-Dox, Acetyl-P-L-G-L-L-Dox] (Ac-PLGLL-{Doxorubicin(3'-N)}), the EC50 [3, 12] is reported as under 10 µM, the remaining at 5.5 h, 10 μmolar [4] is reported as 63.8% and the “Conjugate Stability After 5.5 Hours (Percent of Control (In Buffer, T = 0)), Buffer” value [1] is reported as 106%. For the same compound, the remaining at 5.5 h, 10 μmolar [2] was 87.2%.

In the case of `COc1cccc2c1C(=O)c1c(O)c3c(c(O)c1C2=O)C[C@@](O)(C(=O)CO)C[C@@H]3O[C@H]1C[C@H](NC(=O)[C@H](CC(C)C)NC(=O)CNC(=O)[C@H](CC(C)C)NC(=O)[C@@H]2CCCN2C(=O)CNC(C)=O)[C@H](O)[C@H](C)O1` [Ac-GPLG-L-Dox] (Ac-GPLGL-{Doxorubicin(3'-N)}), the remaining at 5.5 h, 10 μmolar [4] is reported as 5.9%, the “Conjugate Stability After 5.5 Hours (Percent of Control (In Buffer, T = 0)), Buffer” value [1] is reported as 106% and the remaining at 5.5 h, 10 μmolar [2] is reported as 10.2%.

For “acetyl-P-L-G-Hof-(N,N-dimethyl-K)-L-Dox (XLGXXL; non-natural residues) [Ac-PLG-HofK(Me2)L-Dox]”, the “Fraction of L-Dox” value ([5]; 0 hours, Minus MMP inhibitor) was 0, the “Fraction of L-Dox” value ([5]; 0 hours, Plus MMP inhibitor) was 0 and the “Fraction of L-Dox” value ([5]; 3 hours, Minus MMP inhibitor) was 0.10. For the same compound, the “Fraction of L-Dox” value ([5]; 3 hours, Plus MMP inhibitor) was 0.004, the “Fraction of L-Dox” value ([5]; 5.5 hours, Minus MMP inhibitor) was 0.20 and the “Fraction of L-Dox” value ([5]; 5.5 hours, Plus MMP inhibitor) was 0.01. The “Fraction of L-Dox” value ([5]; 8 hours, Minus MMP inhibitor) was 0.46 and the “Fraction of L-Dox” value ([5]; 8 hours, Plus MMP inhibitor) was 0.02.

In the case of `COc1cccc2c1C(=O)c1c(O)c3c(c(O)c1C2=O)C[C@@](O)(C(=O)CO)C[C@@H]3O[C@H]1C[C@H](NC(=O)[C@H](CC(C)C)NC(=O)[C@H](C)NC(=O)[C@H](Cc2ccc(O)cc2)NC(=O)[C@H](CC(C)C)NC(=O)CNC(=O)[C@H](CC(C)C)NC(=O)[C@@H]2CCCN2C(C)=O)[C@H](O)[C@H](C)O1` [Ac-PLG-LYAL-Dox, acetyl -P-L-G-L-Y-A-L-Dox] (Ac-PLGLYAL-{Doxorubicin(3'-N)}), the EC50 [3, 12] is reported as under 10 µM, the remaining at 5.5 h, 10 μmolar [4] is reported as 20% and the “Conjugate Stability After 5.5 Hours (Percent of Control (In Buffer, T = 0)), Buffer” value [1] is reported as 91.3%. The remaining at 5.5 h, 10 μmolar [2] was 37.5%.

In the case of `COc1cccc2c1C(=O)c1c(O)c3c(c(O)c1C2=O)C[C@@](O)(C(=O)CO)C[C@@H]3O[C@H]1C[C@H](NC(=O)[C@H](CC(C)C)NC(=O)[C@H](C)NC(=O)[C@H](CC(C)C)NC(=O)CNC(=O)[C@H](CC(C)C)NC(=O)[C@@H]2CCCN2C(C)=O)[C@H](O)[C@H](C)O1` [Ac-PLG-LAL-Dox, acetyl-P-L-G-L-A-L-Dox] (Ac-PLGLAL-{Doxorubicin(3'-N)}), the EC50 [3, 12] is reported as under 10 µM, the remaining at 5.5 h, 10 μmolar [4] is reported as 9% and the “Conjugate Stability After 5.5 Hours (Percent of Control (In Buffer, T = 0)), Buffer” value [1] is reported as 96.8%. The remaining at 5.5 h, 10 μmolar [2] was 49.1%.

In the case of `COc1cccc2c1C(=O)c1c(O)c3c(c(O)c1C2=O)C[C@@](O)(C(=O)CO)C[C@@H]3O[C@H]1C[C@H](NC(=O)[C@H](CC(C)C)NC(=O)CNC(=O)[C@H](CC(C)C)NC(=O)[C@@H]2CCCN2C(C)=O)[C@H](O)[C@H](C)O1` [Ac-PLG-L-Dox, Ac-PLGL-Dox] (Ac-PLGL-{Doxorubicin(3'-N)}), the remaining at 5.5 h, 10 μmolar [4] is reported as 68.2%, the “Conjugate Stability After 5.5 Hours (Percent of Control (In Buffer, T = 0)), Buffer” value [1] is reported as 99.2% and the remaining at 5.5 h, 10 μmolar [2] is reported as 74.7%.

With `COc1cccc2c1C(=O)c1c(O)c3c(c(O)c1C2=O)C[C@@](O)(C(=O)CO)C[C@@H]3O[C@H]1C[C@H](NC(=O)[C@H](CC(C)C)NC(=O)[C@H](C)NC(=O)[C@H](CC(C)C)NC(=O)CNC(=O)[C@H](CC(C)C)NC(=O)[C@@H]2CCCN2C(=O)CNC(C)=O)[C@H](O)[C@H](C)O1` [Ac-GPLG-LAL-Dox, acetyl-G-P-L-G-L-A-L-Dox] (Ac-GPLGLAL-{Doxorubicin(3'-N)}) the remaining at 5.5 h, 10 μmolar [4] was 5.8%, the “Conjugate Stability After 5.5 Hours (Percent of Control (In Buffer, T = 0)), Buffer” value [1] was 92.2% and the remaining at 5.5 h, 10 μmolar [2] was 15.4%.

For `COc1cccc2c1C(=O)c1c(O)c3c(c(O)c1C2=O)C[C@@](O)(C(=O)CO)C[C@@H]3O[C@H]1C[C@H](NC(=O)[C@H](CC(C)C)NC(=O)[C@H](CC(C)C)NC(=O)CNC(=O)[C@H](CC(C)C)NC(=O)[C@@H]2CCCN2C(=O)CNC(C)=O)[C@H](O)[C@H](C)O1` [Ac-GPLG-LL-Dox, acetyl-G-P-L-G-L-L-Dox] (Ac-GPLGLL-{Doxorubicin(3'-N)}), the remaining at 5.5 h, 10 μmolar [4] was 25.8%, the “Conjugate Stability After 5.5 Hours (Percent of Control (In Buffer, T = 0)), Buffer” value [1] was 105% and the remaining at 5.5 h, 10 μmolar [2] was 42.6%.

For `COc1cccc2c1C(=O)c1c(O)c3c(c(O)c1C2=O)C[C@@](O)(C(=O)CO)C[C@@H]3O[C@H]1C[C@H](N)[C@H](O)[C@H](C)O1` [Doxorubicin, doxorubicin, reference compound], the EC50 ([3]; Homo sapiens, HT-1080, 72 h, HT1080 cells, three days, MTS, read-out: EC50) is given as 0.008 to 0.009 µM and the “cumulative dose in excess of which there is a substantial risk of cardiotoxicity and myelosuppression” value [6] is given as 500 to 550 mg doxorubicin/m^2.

For Leu-Dox, the “conversion of Leu-Dox to Dox” value [7] is given as “approximately 25%”, the “overall conversion of Leu-Dox to Dox” value [8] is given as “approximately 20%” and the “anti-tumor efficacy compared with free doxorubicin” value [9] is given as “more effective anti-tumor agent than free doxorubicin”.

With `COc1cccc2c1C(=O)c1c(O)c3c(c(O)c1C2=O)C[C@@](O)(C(=O)CO)C[C@@H]3O[C@H]1C[C@H](NC(=O)[C@H](CC(C)C)NC(=O)[C@H](C)NC(=O)[C@H](CC(C)C)NC(=O)[C@H](CC(C)C)NC(=O)CNC(=O)[C@H](CC(C)C)NC(=O)[C@@H]2CCCN2C(C)=O)[C@H](O)[C@H](C)O1` [Ac-PLG-LLAL-Dox, acetyl -P-L-G-L-L-A-L-Dox] (Ac-PLGLLAL-{Doxorubicin(3'-N)}) the EC50 [3] was under 10 µM, the remaining at 5.5 h, 10 μmolar [4] was 19.2% and the “Conjugate Stability After 5.5 Hours (Percent of Control (In Buffer, T = 0)), Buffer” value [1] was 102.0%. It also gave a remaining at 5.5 h, 10 μmolar [2] of 55.6%.

In the case of “Ac-HSSKLQ-Leu-Dox: peptide-doxorubicin pro-drug targeted to the prostate-specific antigen (XSSKLQL; N-acetyl, Leu-doxorubicin conjugate)”, the “substrate for the PSA protease” value [10] is listed as “is a substrate for the PSA protease” and the “activity against prostate tumor cells which express the protease activity” value [11] is listed as “is active against prostate tumor cells”.
